Measurements taken from paper PMC9544338.

Columns and labels:
Assay in all cases: co-IP; N2a cells cotransfected with His6-RGS19 and Gαo-GFP (C-terminally tagged) variants, treated with 1 μM ZPT for 3 hours before IP of Gαo with a nanobody against GFP; Western blot; fold against DMSO-treated cells
[1] = target: Gαo[E246K]-GFP (C-terminally tagged) (human), P09471; settings: remark: other sources report otherwise
[2] = target: Gαo[G203R]-GFP (C-terminally tagged) (human), P09471
[3] = target: Gαo[R209C]-GFP (C-terminally tagged) (human), P09471; settings: remark: other sources report otherwise

fold increase of the interaction by ZPT over DMSO [1]: 12 fold | fold increase of the interaction by ZPT over DMSO [2]: 20 fold | fold increase of the interaction by ZPT over DMSO [3]: 6 fold
B1: His6-RGS19, P49795 1-217 (other documents disagree on this pair)
chain: MPTPHEAEKQITGPEEADRPPSMSSHDTASPAAPSRNPCCLCWCCCCSCSWNQERRRAWQASRESKLQPLPSCEVCATPSPEEVQSWAQSFDKLMHSPAGRSVFRAFLRTEYSEENMLFWLACEELKAEANQHVVDEKARLIYEDYVSILSPKEVSLDSRVREGINKKMQEPSAHTFDDAQLQIYTLMHRDSYPRFLSSPTYRALLLQGPSQSSSEA
